Assay: soluble on expression in E. coli; label from the status in PepcDB or PDB records

Row | Sequence | soluble on expression in E. coli
1 | MSLDANVRTVKWNGIPLHEASSAIVKEETNGDFYLTVRYPITDSGIYQLIKEDMLIKSPVPVLGAQLFRIKKPIENDDSMDITAYHVSDDIMKRSITPVSVVGQGCAMALSQMVQNAKTGLGDFSFTSDIMDSRTFNTTETETLYSVLMDGKHSIVGTWEGELVRDNFALSIKRSRGADRGVVITTHKNLKSYQRTKNSQGVVTRIHARSTFKPDGAEDEVTLRVSVDSPLINSYPYINEKEYENNNAETVEDLRKWAEAKFTNEGIDKVSDAIEIEAYELDGQVVNLGDTVNLKSRKHSADLYKKAIAYEFNALTEEYISITFDDKPGVGGSGVSSGLSNVADAILVASATAQDVAVQRAVKNANAAFDAEFGKTKTKINDDIEIAKAKVESFKSELSNRMDNQLLPLATEAKNLASQAQADLTRKEIELRAELNREGHHHHHH | not soluble
2 | MKKTQSEPDQEAIRKIEELSQDLIEGLESYGARLLSVYAHGGILFSEQSEFLHQLVGGRRERIPLTFGTIASTIYSDRVIFGKETIEIRHESNERFAGMFGWKEYPSKTRPGMTDGLLTAPFEFILTQSFVFKSKAAASVIMGRKQNQMINAADRASSQIEALDEALDDLESNRFVLGEHHLSLAVFANHPKALAEYLSKARAHLTNGGAVIAREDLGLEAAWWAQLPGNFSYRARSGAITSRNFAALSPFHSFPIGKLEGNVWGTAVALLKTQAGSPYYFNFHYGDLGNTFVCGPSGSGKTVIVNFLLAQLQKHNPTMVFFDKDQGAEIFVRAGGGKYKPLKNGQPTGIAPLKGMEYTEKNKVFLRNWVLKLVTAEGQTVTEEERQDIAKAIDALGNLPHAQRSLSALQLFFDNTSKEGIAIRLQRWLKGNDLGWVFDNDQDDLNLDSQFIGYDMTDFLDNEEIRRPLMMYLFNRILDLIDGRRIIIVIDEFWKALEDDSFKAFAQDRLKTIRKQNGMMLFATQSPKDALNSTIAHTIIEQCPTQIFFPNQKANYKDYVEDFKLTEREFELIQSELSRESRRFLIKQGQSSVVAELNLRGMNDEIAVLSGTTKNIELVNQIISEYGADPDIWLPIFHQRRENQLEHHHHHH | soluble
3 | MDAIITGESERIGLSVIDNNDVEHLIETNESGEITYHEQDGYPDDSSKRTDEGNEYVNQARKYAKYYVYLKRGYDTVSAPENPVRIDAVRQAIAQMDLETFETHFGDLYQQFSSETDGSAEPVYDVPPQATTPPIYAQNVYLGIDPLETDLGDELAAKHDLDITAESAADVAIADLSTEEIKQWGEFTGEFATRAIEEQIDLSDAVYIDNTSQLYVKHPEGTDLVAADDHLEPTSREPDTVIELLPIELESLEYFQSFMDHYLRCQIRDVFIEMGVVPPEEFRVLGLGQFMAAHCYSYIDFYPEFHNPESGAFTQQTSLF | not soluble
4 | MSLASVQDLGKVEQAAPAQKLTVTIALSLRDRDAAARYLQEVHTPSSPNYHKFLTPSEFRARYAPTEASLAKVAARLQAAGLSVKRIGSTLLQVSGPAATVQKAFGAEVHVFQNKSVVQGAAARYTAPVRASTPGIDLSDVQAVIGLDSRPHFRPHLRQLPSHLQASMDKSASAVTNGNAPGKWTVTDLARHYNITPLYNKGIHGQGATIGIVTLASFTPSDAFQYWSSIGLATDPNRLTVVDIDGGPGAPSDDGGSSETTLDVEQSGGIAPDAKIIVYQAPNTTQGFVDAFAKAIESNAADTLSVSWGEWEWFDQQSQAVNPVNGKSANVLQTYHDLFLQAALQGQTMFAASGDSGAYDVNRAAPLPQYNKVLSVDSPANQQFITAAGATTVPTTLTFHPNGKEMKIKIPTERAWGWDYLNGLCKALGKDPVACGTFPVGDGGGVSSFIGRPFYQNWLPGMQNSPAGQQLVDSSQNPPQVIATLPANFKGRNVPDISMNGDPETGYVVYYTSSKTGFSIQTNNGGTSFVAPQLAGITALLNQSLGGRLGLLNFSLYGLVATGHGYQGFGRHGAPLRDITAGNNWGYNAHRGYDQATGVGAPDVANLDAALRRYFWFEGHHHHHH | not soluble
5 | PVAMKEAQKRLGDKVEYTTDMYDAVRGAEALFHVTEWKEFRMPDWSALSQTMAASLVIDGRNVYELPADSDFTLLNIGNSAIESASSK | not soluble
6 | GSEVYKKAPPYPEQVVSASGKVLMTKDDILAGQSAWQTTGGMEVGSILGHGAYQAPDWTADWLHRELVAWLDLTAQQTYGKKFDEVSPEEQAVLKTRLADEYRNQSRVKEDGSVVISDTRVKAIESILPYYHGVYSDDPKFQTTREHFAMKNNTLPSQEAREKLFNFFFWTSWSASTNRPDENFTYTNNWPHEPLINNVPTTEN | not soluble
7 | MGSDKIHHHHHHAQRIEELPAVPLQIGYEKTLHLIFPTEVKYYSIGGDYVIGEKVGNCPEIIRLKAAEENFPGETTLSVVTADTKFYSYAISYNAHPVESYVRVDGQAPAPHTLPVGKDRQMFLIFPAGITYVDYGSTNVEVEKAEGVDNILAVKATGEFTEDTNISAVVEGGKFYTFNLHYAPFPERFSFVIDKEKTQRVAILDERERSSEQKERIRQAISKRIPLDLGLKDKNAGMEFEVGNIFIDGDILLLRMTLTNRTQIGYTTDFMRFYIQDAKIHKKTAVQQIEQNILFAFDYPEEIPAHESRTFTVAMNKFTIPDKKRLIIEIQERNGGRHFLYKLKNKSLLGAEEVFRSLQEQKTEDEADRILRRISR | not soluble
8 | MSLHATMEDVAKLAGVSLKSVSRVINAEPHVSAKLRAKVEAAIAELNYVPDTAARSLAGSRAFIVGLLFDNPSPNYTMNIQKGVYETCRDQQHHLRIDNIDSTVPAEKFEAQLAAMVRNSRCDGFVLTPPLTDNVVLLDFLDRSGIRYVRIAPDIQPDRSPGVCIDDAAAAAAAARHLWELGHRRFAVVRGPASHGAAGRRRQGFIDELHRLGAENPIIEAEGNFSFESGIAAGAKVLAATPRPTAIFAANDDSAAGVMVACSQAGLKVPNDVSVCGFDDSWVAKSVWPYLTTVYQPIEEMGRAAAALLLRRDEPDNVLHELDFSLVVRASTAEGHHHHHH | soluble
9 | MAQKISINRGLGLGMAQLGAFARMGMMINVSAMGPQDGHANGGVGEGGIEMSRKSTWRSENDEIKTRKSTAFEPDLDFDMIDFRQPSGSSQYLYGFGFDNNAFGLADGQSDEDSVFM | not soluble
10 | WAIFVEQSDGHYRVRLRSKSHIINEIAKRHNGGGHPLASGANSYSLEENQAIYQ | soluble
11 | MSHLPLLALSPLDGRYLSKVDTLRPIFSEYGLIKSRVKVEIAWLLALAAEPNIVELAPFSVAAQTRLRVLADGLTIEHAARVKEIEHTTNHDVKAVEYFIKEQLKDDIELRRGLEFVHFACTSEDINNLSYSLMLQQARDDVLLPTLDGIATHLRTLAHAQAAQPMLSRTHGQTASPTTLGKEIANVVARLERQRHQIATIALSGKINGAVGNYNAHTISYPEVNWPALAQRFVESLGLVFNPYTTQIEPHDTIAEISDAIRRANTILIDLARDLWGYISLGYFKQKLKEGEIGSSTMPHKVNPIDFENAEGNFGVANALFEHFSTKLPISRWQRDLTDSTVLRALGTAFGHTQVALDSLNKGLHKLSPNPERIDADLDAAWEVLAEAVQTIMRRHNLPNPYEQLKALTRGQGITADSMRAFIETLDLPTEAKQRLHDLTPRAYTGLAKQLALNI | not soluble
12 | MQQLLISILEDLNNTSTDIIASAVISTDGLPMATMLPSHLNSDRVGAISATLLALGSRSVQELACGELEQVMIKGKSGYILLSQAGKDAVLVLVAKETGRLGLILLDAKRAARHIAEAI | not soluble
13 | MFPEILNNEKLRLENIKKIYESSKSGYESAKQLYEQQVNNPEVSDEQKSENLEKLKESRGDLDNLQKKIVELQAKIENLSKLGGQQGNPFKKLF | not soluble
14 | MGSDKIHHHHHHMNPLAVELNDLLAQHNPHVLEMLSDLGKNLFFPKGILTQSAEAKEKAHKFNATIGIATENGGPMYLQCIQDKLSAFDPKDIYPYAPPAGKPELRSLWREKMLRENPSQQGKHFSNPIVTNALTHGLSIAGDMFLDKGDHLILPDMLWGNYNLTFGTCCGAVIRKYPTFTATGGYDVDAFKAELKNSAEEKGKAVVLLNFPNNPSGYTPTVAEGDALVAAIKEVAEGGCNIVAITDDAYFGLFYEDSLKESLFGKLANLHPRILAVKLDGATKEEFVWGFRTGFITFADGNSYENTPVMTALEKKAMGIIRARISNCPHPSQTFAIEALRSPNFIKQKQEKFQVLKGRALKTKEVLNSGKYDKAWDYYPFNSGYFMCLKLKTVDAEKLRVHMLDKYGVGAISIGKTDLRIAFSCIDEKDIPELFATIHQAVQDLS | not soluble
15 | MSLKIKALLLDIDGTMVFKGHAIPGAAEAIEAARMAGLQLRFLTNITGQLPSTIAEDLQRHGINVRAEEIHTASTSCARYLKSLGDVSCFFLMPESVNSMFEGIARDHVSPDVVVIGDIGESFDYACLNQAFGYLHKGARLVVPHKNLFWFDPRGVRLDCGAFILGLEAASGKQALVTGKPSPVFFTSVMDSLGVKPSQTMIIGDDLLTDIAAAQHLEVAHALVLTGKGASYTESDVPRPERLWPSIAELSRFLAQSGHNTEGHHHHHH | soluble
16 | MSLWQPLVLVLLVLGCCFAAPRQRQSTLVLFPGDLRTNLTDRQLAEEYLYRYGYTRVAEMRGESKSLGPALLLLQKQLSLPETGELDSATLKAMRTPRCGVPDLGRFQTFEGDLKWHHHNITYWIQNYSEDLPRAVIDDAFARAFALWSAVTPLTFTRVYSRDADIVIQFGVAEHGDGYPFDGKDGLLAHAFPPGPGIQGDAHFDDDELWSLGKGVVVPTRFGNADGAACHFPFIFEGRSYSACTTDGRSDGLPWCSTTANYDTDDRFGFCPSERLYTRDGNADGKPCQFPFIFQGQSYSACTTDGRSDGYRWCATTANYDRDKLFGFCPTRADSTVMGGNSAGELCVFPFTFLGKEYSTCTSEGRGDGRLWCATTSNFDSDKKWGFCPDQGYSLFLVAAHEFGHALGLDHSSVPEALMYPMYRFTEGPPLHKDDVNGIRHLYGPRPEPEPRPPTTTTPQPTAPPTVCPTGPPTVHPSERPTAGPTGPPSAGPTGPPTAGPSTATTVPLSPVDDACNVNIFDAIAEIGNQLYLFKDGKYWRFSEGRGSRPQGPFLIADKWPALPRKLDSVFEEPLSKKLFFFSGRQVWVYTGASVLGPRRLDKLGLGADVAQVTGALRSGRGKMLLFSGRRLWRFDVKAQMVDPRSASEVDRMFPGVPLDTHDVFQYREKAYFCQDRFYWRVSSRSELNQVDQVGYVTYDILQCPED | soluble
17 | MSLDNDTVKVGDLVQINLPGEASLNQGFQVDRRGRINLPEIGPVFVAGYNEQQLQDVIIETLKTVYRDVNNARVFIKQQQLLVSVQGYVVKPGEYTLPAGSNIQMFVYEAGGLRAGAQLDKMIVKRGDQNIEFDYKRFLDTGDNEGHHHHHH | soluble
18 | MGHHHHHHSHMSKESVTVAGIDCGTNSIRLKIARVDADGMHEVVPRILRVIRLGQDVDKTHRFADEALERAYVAAREFAGVIAEHPIDGLRFVATSATRDAENREEFEDEIERILGVRPEVIPGTEEADLSFLGATSVVNRDDLPAPYLVVDLGGGSTELVIGGDGVSAPTTQVQGAFSMNIGSVRMTERHLTNDPPTQTQIDEAVADVDEHIDEAFRTVDAGKARTIIGVSGTVTTMTALAMGLKEYDHTVVDGHRLSFEDAYAVDDKFLRMTRAERREYKTIHPGRIDVVGGGAVVWSRVLARVSEAAKADHGEAIDSFVASEHGLLDGIVLDYGRRLLAQ | soluble
19 | MGHHHHHHGGHMSLSPVLTQHVSQPITLDEQTQKMKRHLLQDIRRSAYVYRVDCGGCNACEIEIFAAITPVFDAERFGIKVVSSPRHADILLFTGAVTRAMRMPALRAYESAPDHKICVSYGACGVGGGIFHDLYSVWGGSDTIVPIDVWIPGCPPTPAATIHGFAVALGLLQQKIHAVDYRDPTGVTMQPLWPQIPPSQRIAIEREARRLAGYRQGREICDRLLRHLSDDPTGNRVNTWLRDADDPRLNSIVQQLFRVLRGLHDEGGS | soluble

From the DeepSol protein solubility set
